The results in this text go back to US20240010680A1, “PEPTIDE DISINFECTANT FOR PREVENTING CORONAVIRUSES” (Xiamen University, priority 2021, published 2024).

For the assay, the target named is hACE2-His purified protein (human (printed as hACE2)) (UniProt Q9BYF1).
hACE2-His purified protein (human (printed as hACE2)), sequence (Q9BYF1 18-740 limits assumed): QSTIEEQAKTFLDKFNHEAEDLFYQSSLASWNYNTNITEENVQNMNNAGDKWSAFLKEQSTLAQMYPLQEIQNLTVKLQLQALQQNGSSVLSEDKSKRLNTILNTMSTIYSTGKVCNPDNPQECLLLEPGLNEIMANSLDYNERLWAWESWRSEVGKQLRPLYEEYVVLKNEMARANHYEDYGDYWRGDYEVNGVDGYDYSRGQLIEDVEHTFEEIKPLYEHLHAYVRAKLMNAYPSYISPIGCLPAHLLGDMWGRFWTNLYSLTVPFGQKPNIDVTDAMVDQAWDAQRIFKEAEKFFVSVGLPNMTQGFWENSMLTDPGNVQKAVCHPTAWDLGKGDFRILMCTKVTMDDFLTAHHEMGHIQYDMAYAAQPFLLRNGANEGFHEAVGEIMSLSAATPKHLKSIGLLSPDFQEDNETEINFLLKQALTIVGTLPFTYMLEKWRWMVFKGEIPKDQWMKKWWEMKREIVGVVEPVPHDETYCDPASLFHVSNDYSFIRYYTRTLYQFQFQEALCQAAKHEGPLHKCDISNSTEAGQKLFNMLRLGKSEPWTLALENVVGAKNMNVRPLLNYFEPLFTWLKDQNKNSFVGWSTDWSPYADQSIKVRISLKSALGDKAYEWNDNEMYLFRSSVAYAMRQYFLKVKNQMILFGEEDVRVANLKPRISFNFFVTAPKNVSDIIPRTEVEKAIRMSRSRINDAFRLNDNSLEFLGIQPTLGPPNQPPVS

In the case of S1-HA purified protein (ligand), the Relative brightness value was 100%.
